According to US10907134B2, “Mutated genes for the catalytic protein of oplophorus luciferase and use thereof” (JNC CORPORATION, priority 2013, dated 2021):
Where a chain is given by its changes, count along the chain named. In names and notes the source's numbering stands.

B1: KAZ-A54I: KAZ with single amino acid substitution A54I, SEQ ID NO: 6 (protein)
chain: FTLADFVGDWQQTAGYNQDQVLEQGGLSSLFQALGVSVTPIQKVVLSGENGLKIDIHVIIPYEGLSGFQMGLIEMIFKVVYPVDDHHFKIILHYGTLVIDGVTPNMIDYFGRPYPGIAVFDGKQITVTGTLWNGNKIYDERLINPDGSLLFRVTINGVTGWRLCENILA
B2: KAZ-V44I: KAZ with single amino acid substitution V44I, SEQ ID NO: 4 (protein)
chain: B1 chain with V44I, I54A
B3: KAZ-Y138I: KAZ with single amino acid substitution Y138I, SEQ ID NO: 8 (protein)
chain: B1 chain with I54A, Y138I
B4: KAZ: wild 19 kDa catalytic protein of Oplophorus luciferase (19kOLase), amino acid sequence SEQ ID NO: 2 (protein, listed as Oplophorus gracilirostris)
chain: B1 chain with I54A
B5: KAZ-V44I-A54I: KAZ mutant with two amino acid substitutions V44I and A54I, SEQ ID NO: 10 (protein)
chain: B1 chain with V44I
B6: KAZ-V44I-Y138I: KAZ mutant with two amino acid substitutions V44I and Y138I, SEQ ID NO: 12 (protein)
chain: B1 chain with V44I, I54A, Y138I
B7: KAZ-A54I-Y138I: KAZ mutant with two amino acid substitutions A54I and Y138I, SEQ ID NO: 14 (protein)
chain: B1 chain with Y138I
B8: KAZ-V44I-A54I-Y138I: KAZ mutant with three amino acid substitutions V44I, A54I and Y138I, SEQ ID NO: 16 (protein)
chain: B1 chain with V44I, Y138I

System: CHO-K1 cells
Experiment: Luminescence activity of KAZ mutants expressed in animal culture cells with signal peptide of Gaussia luciferase for secretion
Assay type: cell-based, Chinese hamster
Settings: Table 5; pcDNA3-GLsp- vectors; CHO-K1, 48 hours; 5 μL cell extracts; 0.5 μg coelenterazine
Method: Chinese hamster ovary cell line CHO-K1 was cultured in Ham's F-12 medium (manufactured by Wako Pure Chemical Industries, Ltd.) supplemented with 10% (v/v) fetal bovine serum (manufactured by Biowest Inc.). The CHO-K1 cells were plated in a 6-well plate in 1×10^5 cells/well/2 mL medium (n=2) and cultured in an incubator at 37° C. in 5% (v/v) CO2. After 24 hours, the purified recombinant plasmid was transfected to CHO-K1 cells using a FuGene HD transfection kit (manufactured by Promega Corp.), which was provided for subsequent experiment. Specifically, 1 μg of the recombinant plasmid pGL4.13 [Luc2/sv40], 0.1 μg of the internal standard vector and 3 μL of FuGene HD were added to 100 μL of the medium, which was allowed to stand at room temperature for 15 minutes. Subsequently, 100 μL of the DNA-FuGene complex was added to the cells in the 6 wells. After incubation for 48 hours, the culture medium was collected. On the other hand, the KAZ mutants expressed in the cells were washed 3 times with 3 mL of 1×PBS, then suspended in 1 mL of 1×PBS and disrupted on ice by ultrasonication, which was used as enzyme solutions of the cell-extracts of KAZ mutants.
A luminescence reaction was started by adding 5 μL of the culture media and cell extracts obtained in EXAMPLE 10 to 100 μL of 30 mM Tris-HCl (pH 7.6)-10 mM EDTA (manufactured by Wako Pure Chemical Industries, Ltd.) containing 0.5 μg of coelenterazine (manufactured by INC Corp.). The luminescence activity was determined using a luminometer (manufactured by Atto Inc.: AB2200) for 60 seconds, and the maximum intensity of luminescence (Imax) was defined as a percentage.
Culture media of the KAZ mutants with two amino acid substitutions and KAZ mutants with three amino acid substitutions and the enzyme solutions of the cell-extracts of KAZ mutants were prepared in the same manner as EXAMPLE 10.
In the resultant enzyme solutions and the enzyme solutions of the cell-extracts of KAZ mutants, luminescence activities were determined in the same manner as EXAMPLE 11.

| Molecule | Relative Luminescence Activity (Imax) (%) Cell Extracts [%] |
| --- | --- |
| B1 | 2.4 |
| B2 | 0.7 |
| B3 | 1.0 |
| B4 | 0.1 |

Same assay, conditions: Table 5; pcDNA3-GLsp- vectors; CHO-K1, 48 hours; 5 μL culture medium; 0.5 μg coelenterazine

| Molecule | Relative Luminescence Activity (Imax) (%) Culture Medium |
| --- | --- |
| B1 | less than 0.01% |
| B2 | less than 0.01% |
| B3 | less than 0.01% |
| B4 | less than 0.01% |

Same assay, conditions: Table 11; pcDNA3-GLsp- vectors; CHO-K1; cell extracts; coelenterazine

| Molecule | Relative Luminescence Activity (%, Imax) Cell Extracts [%] |
| --- | --- |
| B5 | 13.9 |
| B6 | 11.2 |
| B7 | 16.0 |
| B8 | 16.2 |
| B4 | 0.3 |

Same assay, conditions: Table 11; pcDNA3-GLsp- vectors; CHO-K1; culture medium; coelenterazine

| Molecule | Relative Luminescence Activity (%, Imax) Culture Medium |
| --- | --- |
| B5 | 0.07% |
| B6 | less than 0.01% |
| B7 | 0.03% |
| B8 | 1.7% |
| B4 | less than 0.01% |

System: not listed separately
Experiment: Luminescence activity of KAZ mutants (pCold II, E. coli) in supernatant and precipitate of crude enzyme solution
Assay type: biochemical
Settings: Table 3; pCold II, E. coli BL21; 5 μL precipitate; 0.5 μg coelenterazine; 60 seconds
Method: In order to express the KAZ mutants in E. coli, the recombinant plasmid prepared in EXAMPLE 3 was used. The E. coli BL21 strain (Novagen, Madison, Wis.) was used as a host cell. The BL21 strain carrying the recombinant plasmid was incubated in 5 mL of Luria-Bertani medium (hereinafter designated as LB medium) containing ampicillin (50 μg/mL) at 37° C. for 18 hours. This seed culture, 0.1 mL, was inoculated to 10 mL of LB medium and incubated for 3 hours, followed by cooling in an ice-water bath for 1 hour. IPTG was added to the culture medium at a final concentration of 1 mM, followed by incubation at 15° C. for further 20 hours. After completion of the incubation, 1 mL of the cultured medium was harvested by centrifugation at 10,000 rpm for 2 minutes. The thus collected E. coli cells were suspended in 0.5 mL of 30 mM Tris-HCl (pH 7.6)-10 mM EDTA (manufactured by Wako Pure Chemical Industries, Ltd.) (hereinafter designated as TE). The E. coli cells were disrupted by sonication for 3 seconds using a Branson Model 250 Sonifier (Danbury, Conn.) to give a crude enzyme solution. After 0.5 mL of the crude enzyme solution was further centrifuged at 10,000 rpm for 2 minutes to separate the supernatant from the precipitate, the precipitate was suspended in 0.5 mL of TE. Then 20 μL each of the supernatant and precipitate were analyzed by SDS-PAGE to confirm the presence or absence of soluble and insoluble proteins. The results are shown in FIG. 1, wherein M and 1 to 17 denote: M: molecular weight size markers; 1: KAZ; 2 KAZ-A4E; 3: KAZ-Q11R; 4: KAZ-Q18L; 5: KAZ-L27V; 6: KAZ-A33N; 7: KAZ-K43R; 8: KAZ-V44I; 9: KAZ-A54I; 10: KAZ-F68D; 11: KAZ-L72Q; 12: KAZ-M75K; 13: KAZ-I90V; 14: KAZ-P115E; 15: KAZ-Q124K; 16: KAZ-Y138I; 17: KAZ-N166R and 18: dnKAZ.
A luminescence reaction was started by the addition of 5 μL each of the supernatant and precipitate obtained in EXAMPLE 4 to 100 μL of TE containing 0.5 μg of coelenterazine (manufactured by JNC Corp.). The luminescence activity was measured for 60 seconds using a luminometer (manufactured by Atto Corp.: AB2200) and expressed in terms of relative luminescence activity (Imax).
To express the KAZ mutants with two amino acid substitutions and three amino acid substitutions in E. coli using a pCold II vector, the recombinant plasmid constructed in EXAMPLE 13 and pCold-V44I-KAZ, pCold-A54I-KAZ, pCold-Y138I-KAZ prepared in EXAMPLE 3 were used. The supernatant and precipitate of each crude enzyme solution were prepared in the same manner as EXAMPLE 4, using the E. coli BL21 starin (Novagen, Madison, Wis.) as a host cell. The supernatant and precipitate, 20 μL each, were subjected to SDS-PAGE analysis to confirm the presence or absence of soluble proteins and insoluble proteins. In FIG. 3, M and 1 to 9 are as follows. M: molecular weight markers; 1: dnKAZ; 2: KAZ; 3: KAZ-V44I-A54I; 4: KAZ-V44I-Y138I; 5: KAZ-A54I-Y138I; 6: KAZ-V44I-A54I-Y138I; 7: KAZ-V44I; 8: KAZ-A54I; and 9: KAZ-Y138I.
The luminescence activities of 5 μL each of the supernatant and precipitate obtained in EXAMPLE 14 were determined in the same manner as EXAMPLE 5. The luminescence activity was assayed with a luminometer (manufactured by Atto Inc.: AB2200) for 60 seconds, and the maximum intensity of luminescence (Imax) was shown as relative luminescence activity.

| Molecule | Relative Luminescence Activity (Imax) Precipitate |
| --- | --- |
| B1 | 13 |
| B2 | 0.6 |
| B3 | 1.4 |
| B4 | 0.1 |

Same assay, conditions: Table 3; pCold II, E. coli BL21; 5 μL supernatant; 0.5 μg coelenterazine; 60 seconds

| Molecule | Relative Luminescence Activity (Imax) Supernatant |
| --- | --- |
| B1 | 150 |
| B2 | 6.5 |
| B3 | 32 |
| B4 | 1.0 |

Same assay, conditions: Table 8; pCold II, E. coli BL21; 5 μL precipitate; coelenterazine; 60 seconds

| Molecule | Relative Luminescence Activity (Imax) Precipitate |
| --- | --- |
| B1 | 13 |
| B2 | 0.6 |
| B3 | 1.4 |
| B5 | 5.8 |
| B6 | 5.0 |
| B7 | 21 |
| B8 | 40 |
| B4 | 0.1 |

Same assay, conditions: Table 8; pCold II, E. coli BL21; 5 μL supernatant; coelenterazine; 60 seconds

| Molecule | Relative Luminescence Activity (Imax) Supernatant |
| --- | --- |
| B1 | 151 |
| B2 | 6.5 |
| B3 | 32 |
| B5 | 295 |
| B6 | 71 |
| B7 | 982 |
| B8 | 1,730 |
| B4 | 1.0 |

Same assay, conditions: pCold II crude enzyme solution; coelenterazine

| Molecule | Luminescence activity relative to that of dnKAZ |
| --- | --- |
| B1 | approximately 1/12 |

Same assay, conditions: pCold II, supernatant; coelenterazine (Table 8)

| Molecule | Luminescence activity in the supernatants, fold higher as compared to the wild KAZ [fold] |
| --- | --- |
| B5 | 295 |
| B6 | 71 |
| B7 | 982 |
